Laboratory results: patent US7399466B2, “Method and compositions for promoting osteogenesis” (Enobia Pharma Inc., priority 2000, dated 2008)
Where a chain is given by its changes, count along the chain named. Where “and” joins values, the source holds several entries; their conditions need not be identical. Equal values may be shown once. Read-outs that look alike come from different tables or passages of the source. Blank lines part the entries; values can stand above or below the molecule they belong to. Bridges are numbered along the chain shown (N, C = ends). Where no end group is shown, it is not given here. [ ]: non-standard residue; d: D form. Gla = N[C@@H](CC(C(=O)O)C(=O)O)C(=O)O

Tests used:
secPHEX = target: T1, secPHEX (Homo sapiens, UniProt P78562); test: secPHEX enzymatic assay: inhibition of PTHrP107-139 hydrolysis (RP-HPLC); assay type: biochemical
T1 construct: made in house; host or cells: LLC-PK1 cells (porcine kidney; ATCC No. CRL-1392), stably transfected; purified from culture medium
T1 sequence (P78562 46-749): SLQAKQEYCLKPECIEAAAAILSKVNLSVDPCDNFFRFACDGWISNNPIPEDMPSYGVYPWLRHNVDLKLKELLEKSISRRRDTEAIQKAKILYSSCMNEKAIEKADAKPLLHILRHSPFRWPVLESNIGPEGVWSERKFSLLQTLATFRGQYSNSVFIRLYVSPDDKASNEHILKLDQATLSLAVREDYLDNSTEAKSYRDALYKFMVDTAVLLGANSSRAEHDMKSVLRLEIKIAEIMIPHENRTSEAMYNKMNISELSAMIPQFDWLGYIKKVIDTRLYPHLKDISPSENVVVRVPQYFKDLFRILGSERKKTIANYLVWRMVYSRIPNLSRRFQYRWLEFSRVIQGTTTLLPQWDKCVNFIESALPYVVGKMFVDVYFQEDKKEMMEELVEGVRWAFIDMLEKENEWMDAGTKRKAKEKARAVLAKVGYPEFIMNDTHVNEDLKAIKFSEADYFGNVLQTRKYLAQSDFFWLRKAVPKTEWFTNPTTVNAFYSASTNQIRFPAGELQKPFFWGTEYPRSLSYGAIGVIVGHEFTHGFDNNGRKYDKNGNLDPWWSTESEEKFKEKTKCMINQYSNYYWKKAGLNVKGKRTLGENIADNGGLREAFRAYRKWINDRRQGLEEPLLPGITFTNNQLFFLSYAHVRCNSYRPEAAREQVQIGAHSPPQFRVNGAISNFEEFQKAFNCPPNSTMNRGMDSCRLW
Procedure: (§1) One μg of purified secPHEX or secPHEXE581V was incubated with 5 μg of peptide substrate for 30 min at 37° C. in a volume of 200 μl of 50 mM MES (2-(N-morpholino) ethanesulfonic acid) pH6.5, 150 mM NaCl. Peptide PTHrP107-139 (human origin and obtained from Bachem, Philadelphia, Pa., U.S.A. or Peninsula Laboratories, Belmont, Calif., U.S.A.), used as a substrate, was prepared as 1 μg/μl solutions also containing 1 μg/μl of the tripeptide Tyr-Gly-Gly. This latter peptide, which is not a PHEX substrate, was used as an internal standard. Peptide substrate AWLDSGV (Dr Gilles Lajoie, Waterloo Peptide Synthesis C2-360 University of Waterloo, Waterloo, ON Canada) (SEQ ID NO: 1) was digested with secPHEX in the same manner as described above for PTHrP107-139. To determine osteocalcin inhibitory potency on secPHEX activity, osteocalcin (Peptide Research Institute, Japan or E. coli-produced) was added to the reaction mixture to final concentrations varying from 10^−8 to 5×10^−4 M. To determine the effect of agents on the inhibitory activity of osteocalcin, the agents were added to a reaction mixture containing secPHEX, peptide substrate and 5×10^−6 M osteocalcin. […] Following the incubation period, hydrolysis was stopped by the addition of EDTA to a final concentration of 5 mM. The potentiating agent was identified when the intact substrate was determined to be present in a […] concentration than in the absence of the potentiating agent (see FIG. 6). Results were quantified by comparing, after normalization for the amounts of peptide Tyr-Gly-Gly present in the samples, the areas under the peaks of the substrate.
Identification and quantification of the enzymatic activity of secPHEX on the PTHrP107-139 peptide was performed by reverse phase high performance liquid chromatography (RP-HPLC) on a C18 μBondapak analytical column (Waters, Mississauga, ON, Canada) with a UV detector set at 214 nm. Peptides were resolved with a linear gradient of 5% B to 85% B in 45 min at the flow rate of 0.4 ml/min [mobile phase A=0.1% trifluoroacetic acid; mobile phase B=80% acetonitrile (CH3CN), 0.1% trifluoroacetic acid].

osteocalcin = target: T2, osteocalcin (Homo sapiens, UniProt P02818); test: Effect of Ca2+ on the inhibitory action of osteocalcin on secPHEX; assay type: biochemical
T2 construct: The mature peptide is 49 amino acids long with 3 Gla residues and one difulfide bond; purchased Peptide Research Institute, Japan
T2 sequence (P02818 52-100): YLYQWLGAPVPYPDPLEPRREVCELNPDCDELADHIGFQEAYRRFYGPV
Procedure: One μg of purified secPHEX or secPHEXE581V was incubated with 5 μg of peptide substrate for 30 min at 37° C. in a volume of 200 μl of 50 mM MES (2-(N-morpholino) ethanesulfonic acid) pH6.5, 150 mM NaCl. Peptide PTHrP107-139 (human origin and obtained from Bachem, Philadelphia, Pa., U.S.A. or Peninsula Laboratories, Belmont, Calif., U.S.A.), used as a substrate, was prepared as 1 μg/μl solutions also containing 1 μg/μl of the tripeptide Tyr-Gly-Gly. This latter peptide, which is not a PHEX substrate, was used as an internal standard. Peptide substrate AWLDSGV (Dr Gilles Lajoie, Waterloo Peptide Synthesis C2-360 University of Waterloo, Waterloo, ON Canada) (SEQ ID NO: 1) was digested with secPHEX in the same manner as described above for PTHrP107-139. […] The potentiating agent was identified when the intact substrate was determined to be present in a […] concentration than in the absence of the potentiating agent (see FIG. 6). Results were quantified by comparing, after normalization for the amounts of peptide Tyr-Gly-Gly present in the samples, the areas under the peaks of the substrate.
(§2) Identification and quantification of the enzymatic activity of secPHEX on the PTHrP107-139 peptide was performed by reverse phase high performance liquid chromatography (RP-HPLC) on a C18 μBondapak analytical column (Waters, Mississauga, ON, Canada) with a UV detector set at 214 nm. […]

PTHrP107-139 = test: secPHEX activity: digestion of PTHrP107-139 (RP-HPLC, MALDI-Tof); assay type: biochemical, human
Procedure: as §1, §2
The pH optimum for the reaction was determined by progressively increasing the pH of the MES buffer from 5.0 to 7.0 or of a Tris buffer (50 mM Tris.HCl, 150 mM NaCl) from 7.0 to 9.0.

Hyp male mice [1] = test: secPHEX injection to Hyp mice, daily for 4 days: serum phosphate; assay type: in vivo, mouse; design: serum phosphate, Day 0 / serum phosphate, Day 4: unit not given here; conditions: for serum phosphate, Day 0 / serum phosphate, Day 4: individual Hyp mice; for serum phosphate, Day 0: baseline before treatment
Procedure: Purified secPHEX solubilized in 1 mM phosphate pH 7.4, 150 mM NaCl, was administered intravenously daily for 4 or 14 consecutive days through the subclavian vein Hyp males (12 weeks of age). The same number of aged-matched Hyp male mice were treated with vehicle only as controls. […]

Hyp male mice [2] = test: secPHEX injection to Hyp mice, daily for 14 days: serum alkaline phosphatase and phosphate; assay type: in vivo, mouse
Procedure: Purified secPHEX solubilized in 1 mM phosphate pH 7.4, 150 mM NaCl, was administered intravenously daily for 4 or 14 consecutive days through the subclavian vein Hyp males (12 weeks of age). The same number of aged-matched Hyp male mice were treated with vehicle only as controls.
In a similar experiment, Hyp male mice where injected with daily doses of 1 mg/kg secPHEX for 14 days.

[3] = Precipitation of secPHEX in low-salt solutions; assay type: physicochemical; conditions: NaCl added to reaction mixture
Procedure: SecPHEX activity was assayed in 50 mM MES pH 6.5 containing 150 mM NaCl (26). Sodium chloride was added to the reaction mixture because we observed that secPHEX precipitated out in solutions containing less than 50 mM salt.

[4] = 1 mM added to the reaction mixture
[5] = PTHrP107-139 substrate, inhibitor varied from 0.1 to 50 mM, read-out: concentration giving 50% inhibition of secPHEX activity
[6] = 1 mg/kg daily, individual Hyp mice

inhibition of secPHEX activity (secPHEX; [4]): fully inhibited
Molecule: c1cnc2c(c1)ccc1cccnc12 [1,10-phenanthroline]

Molecule: [Ca+2] [Ca^2+, CaCl2, reference compound]
effect on secPHEX activity in the absence of osteocalcin (secPHEX; data not shown): no effect | EC50 (osteocalcin; CaCl2 varied from 10^−6 to 10^−2 M, constant osteocalcin 2×10^−6M (FIG. 6B), read-out: Ca2+ concentration necessary to reduce the inhibitory potency of osteocalcin by 50%): 5000 µM

Molecule: O=C(O)CN(CCN(CC(=O)O)CC(=O)O)CC(=O)O [EDTA]
inhibition of secPHEX activity (secPHEX; [4]): fully inhibited

IC50 (secPHEX; [5]): 3500 µM
Molecule: O=P(O)(O)O [Pi]

Molecule: O=P(O)(O)OP(=O)(O)O [pyrophosphate]
IC50 (secPHEX; [5]): 2500 µM

Molecule: E. coli-produced osteocalcin: human osteocalcin without Gla residues made in E. coli (pGEX-OST vector) (YLYQWLGAPVPYPDPLEPRREVCELNPDCDELADHIGFQEAYRRFYGPV)
inhibitory potency on secPHEX compared to osteocalcin extracted from bones (secPHEX; FIG. 7A): similar | modulation of inhibitory activity on secPHEX by Ca2+ (osteocalcin; FIG. 7B): not modulated

inhibition of secPHEX activity (secPHEX; 5×10^−6 M osteocalcin): approximately 75% | degradation by secPHEX (secPHEX; data not shown): not degraded | IC50 (secPHEX; secPHEX-mediated PTHrP107-139 hydrolysis, FIG. 6A, read-out: concentration giving fifty percent inhibition of secPHEX activity): 3.6 µM
Molecule: osteocalcin: non-collagenous bone protein, mature peptide 49 amino acids with 3 Gla residues; extracted from human bones (YLYQWLGAPVPYPDPL[Gla]PRR[Gla]VC[Gla]LNPDCDELADHIGFQEAYRRFYGPV; disulfide 23-29 (inferred))

B1: secPHEX: soluble, secreted form of recombinant human PHEX zinc metallopeptidase produced in LLC-PK1 cells (protein, UniProt P78562 42-641, looked up)
extracellular domain: QGLLSLQAKQEYCLKPECIEAAAAILSKVNLSVDPCDNFFRFACDGWISNNPIPEDMPSYGVYPWLRHNVDLKLKELLEKSISRRRDTEAIQKAKILYSSCMNEKAIEKADAKPLLHILRHSPFRWPVLESNIGPEGVWSERKFSLLQTLATFRGQYSNSVFIRLYVSPDDKASNEHILKLDQATLSLAVREDYLDNSTEAKSYRDALYKFMVDTAVLLGANSSRAEHDMKSVLRLEIKIAEIMIPHENRTSEAMYNKMNISELSAMIPQFDWLGYIKKVIDTRLYPHLKDISPSENVVVRVPQYFKDLFRILGSERKKTIANYLVWRMVYSRIPNLSRRFQYRWLEFSRVIQGTTTLLPQWDKCVNFIESALPYVVGKMFVDVYFQEDKKEMMEELVEGVRWAFIDMLEKENEWMDAGTKRKAKEKARAVLAKVGYPEFIMNDTHVNEDLKAIKFSEADYFGNVLQTRKYLAQSDFFWLRKAVPKTEWFTNPTTVNAFYSASTNQIRFPAGELQKPFFWGTEYPRSLSYGAIGVIVGHEFTHGFDNNGRKYDKNGNLDPWWSTESEEKFKEKTKCMINQYSNYYWKKAGLNVKGKRTLG
modifications: extracellular domain
notes: soluble, secreted form of recombinant human PHEX zinc metallopeptidase produced in LLC-PK1 cells
pH of maximum activity (PTHrP107-139; MES buffer pH 5.0 to 7.0, Tris buffer pH 7.0 to 9.0): 6.5 | cleavage site specificity in PTHrP107-139 (PTHrP107-139; fragments identified by MALDI-Tof): amino-terminus of aspartate residues | effect on serum phosphate (Hyp male mice [1]; daily injection over 4 days, as a function of dose, Student t test p<0.05): decreased | serum phosphate, Day 0 (Hyp male mice [1]; dose 1 mg/kg group, 1 mg/kg): 1.68 and 1.25 and 1.36 and 1.37 | serum phosphate, Day 4 (Hyp male mice [1]; dose 1 mg/kg i.v. daily for 4 days, 1 mg/kg): 1.23 and 1.06 and 1.18 and 1.31 | serum phosphate, Day 0 (Hyp male mice [1]; dose 10 mg/kg group, 10 mg/kg): 1.16 and 1.12 and 1.39 and 1.14 | serum phosphate, Day 4 (Hyp male mice [1]; dose 10 mg/kg i.v. daily for 4 days, 10 mg/kg): 0.92 and 0.82 and 0.89 and 0.87 | serum phosphate levels at the 7th and 14th day (Hyp male mice [2]; 1 mg/kg daily for 14 days): same level as pretreatment | effect on serum alkaline phosphatase levels (Hyp male mice [2]; 1 mg/kg daily for 14 days, normal levels 71+/−11 units, Student t test p<0.05): significantly reduced toward normal levels | alkaline phosphatase level, 7th day of treatment (Hyp male mice [2]; [6]): 183 units and 235 units and 233 units and 199 units and 246 units | alkaline phosphatase level, 14th day of treatment (Hyp male mice [2]; [6]): 196 units (2×) and 208 units and 193 units and 218 units | alkaline phosphatase level, pre-treatment (Hyp male mice [2]; 1 mg/kg group, individual Hyp mice, 7 day pre-treatment): 292 units and 357 units and 377 units and 348 units and 323 units | salt concentration below which secPHEX precipitated out [3]: less than 50 mM

B2: secPHEXE581V: inactive secPHEX protein bearing the mutation Glu 581 to Val (protein)
chain: B1 extracellular domain with E540V
degradation of PTHrP107-139 (in words) (PTHrP107-139; similar conditions as secPHEX, FIG. 3D): failed to degrade
